Binding affinity (RU) data for 52 molecules are collected here from patent publication US20250011363A1, “OPTIMIZED SHORTENED PEPTIDE THAT BINDS TO ACETYLCHOLINE RECEPTOR, AND USE THEREOF” (SKINMED CO., LTD., priority 2021, published 2025).

The assay concerns the target acetylcholine receptor. The assay can be described thus: SPR, peptide at 10 µM on acetylcholine receptor. (Surface plasmon resonance follows binding to a sensor surface in real time, without labels.)

B1: 5mer-371 (peptide)
peptide: RGISK
Turning to B1, the Binding affinity (RU) worked out at 86 RU.

B2: 5mer-359 (peptide)
peptide: KRFQK
Regarding B2, the Binding affinity (RU) came out at 79 RU.

B3: 5mer-83 (peptide)
peptide: KGFSR
As for B3, the Binding affinity (RU) stood at 64 RU.

B4: 5mer-71 (peptide)
peptide: KLQSK
In turn, B4 had a Binding affinity (RU) of 68 RU.

B5: 5mer-65 (peptide)
peptide: RQIRR
For B5, the Binding affinity (RU) came out at 67 RU.

B6: 5mer-78 (peptide)
peptide: KVICK
For B6, the Binding affinity (RU) is 79 RU.

B7: 5mer-382 (peptide)
peptide: RLRQR
In the case of B7, the Binding affinity (RU) stood at 62 RU.

B8: 5mer-376 (peptide)
peptide: KGQLR
Molecule B8 showed a Binding affinity (RU) of 65 RU.

B9: 5mer-375 (peptide)
peptide: KQLCR
On to B9, for which the Binding affinity (RU) was 84 RU.

B10: 5mer-62 (peptide)
peptide: KQLTK
With B10, the Binding affinity (RU) worked out at 70 RU.

B11: 5mer-366 (peptide)
peptide: RQLQK
Take B11: the Binding affinity (RU) turned out to be 52 RU.

B12: 5mer-358 (peptide)
peptide: KVRSK
In the case of B12, the Binding affinity (RU) turned out to be 50 RU.

B13: 5mer-374 (peptide)
peptide: KLFTR
Molecule B13 had a Binding affinity (RU) of 75 RU.

B14: 5mer-367 (peptide)
peptide: RSVQK
Turning to B14, the Binding affinity (RU) is 71 RU.

B15: 5mer-379 (peptide)
peptide: KSRLR
Take B15: the Binding affinity (RU) came to 79 RU.

B16: 5mer-384 (peptide)
peptide: KSLRK
Regarding B16, the Binding affinity (RU) stood at 75 RU.

B17: 5mer-61 (peptide)
peptide: RLILK
Take B17: the Binding affinity (RU) was 66 RU.

B18: 5mer-365 (peptide)
peptide: KRRYK
For B18, the Binding affinity (RU) was found to be 52 RU.

B19: 5mer-75 (peptide)
peptide: KVQTK
As to B19, the Binding affinity (RU) was 63 RU.

B20: 5mer-361 (peptide)
peptide: RSYQR
Take B20: the Binding affinity (RU) worked out at 58 RU.

B21: 5mer-370 (peptide)
peptide: KWRRK
With B21, the Binding affinity (RU) came out at 67 RU.

B22: 5mer-373 (peptide)
peptide: KVFTK
In turn, B22 had a Binding affinity (RU) of 87 RU.

B23: 5mer-72 (peptide)
peptide: KLYRR
B23 came in with a Binding affinity (RU) of 50 RU.

B24: 5mer-368 (peptide)
peptide: KRIRR
Take B24: the Binding affinity (RU) is 50 RU.

B25: 5mer-70 (peptide)
peptide: RLLQR
In turn, B25 had a Binding affinity (RU) of 69 RU.

B26: 5mer-362 (peptide)
peptide: KQRLK
In turn, B26 displayed a Binding affinity (RU) of 62 RU.

B27: 5mer-84 (peptide)
peptide: RVVRR
The molecule B27 came in with a Binding affinity (RU) of 67 RU.

B28: 5mer-380 (peptide)
peptide: KRYLK
Turning to B28, the Binding affinity (RU) is 82 RU.

B29: 5mer-76 (peptide)
peptide: RGYRR
As to B29, the Binding affinity (RU) came out at 80 RU.

B30: 5mer-372 (peptide)
peptide: RSVCR
On to B30, for which the Binding affinity (RU) came out at 54 RU.

B31: 5mer-77 (peptide)
peptide: KWRQK
Take B31: the Binding affinity (RU) stood at 74 RU.

B32: 5mer-64 (peptide)
peptide: KVVTR
B32 gave a Binding affinity (RU) of 76 RU.

B33: 5mer-60 (peptide)
peptide: RLFTK
As to B33, the Binding affinity (RU) was determined as 86 RU.

B34: 5mer-80 (peptide)
peptide: KSRTR
For B34, the Binding affinity (RU) came to 83 RU.

B35: 5mer-59 (peptide)
peptide: KLQYR
With B35, the Binding affinity (RU) amounted to 68 RU.

B36: 5mer-378 (peptide)
peptide: RRLSK
B36 gave a Binding affinity (RU) of 65 RU.

B37: 5mer-69 (peptide)
peptide: RSRSR
Molecule B37 gave a Binding affinity (RU) of 50 RU.

B38: 5mer-381 (peptide)
peptide: KGQRR
As to B38, the Binding affinity (RU) is 87 RU.

B39: 5mer-81 (peptide)
peptide: RGIYR
In the case of B39, the Binding affinity (RU) was 79 RU.

B40: 5mer-377 (peptide)
peptide: KGFYK
B40 registered a Binding affinity (RU) of 67 RU.

B41: 5mer-360 (peptide)
peptide: RQLCK
Turning to B41, the Binding affinity (RU) turned out to be 66 RU.

B42: 5mer-82 (peptide)
peptide: RQRYK
On to B42, for which the Binding affinity (RU) is 84 RU.

B43: 5mer-68 (peptide)
peptide: RGFYK
Regarding B43, the Binding affinity (RU) was 82 RU.

B44: 5mer-63 (peptide)
peptide: RLLRK
In turn, B44 came in with a Binding affinity (RU) of 86 RU.

B45: 5mer-66 (peptide)
peptide: KRLLR
As to B45, the Binding affinity (RU) was found to be 80 RU.

B46: 5mer-363 (peptide)
peptide: KRVRK
As to B46, the Binding affinity (RU) amounted to 59 RU.

B47: 5mer-67 (peptide)
peptide: RQLYR
In turn, B47 showed a Binding affinity (RU) of 86 RU.

B48: 5mer-74 (peptide)
peptide: RQITK
Take B48: the Binding affinity (RU) stood at 87 RU.

B49: 5mer-369 (peptide)
peptide: RGFTR
For the molecule B49, the Binding affinity (RU) is 84 RU.

B50: 5mer-383 (peptide)
peptide: RWQRK
Molecule B50 gave a Binding affinity (RU) of 56 RU.

B51: 5mer-364 (peptide)
peptide: RWITR
B51: the Binding affinity (RU) is 62 RU.

B52: 5mer-79 (peptide)
peptide: RWFLR
Turning to B52, the Binding affinity (RU) is 82 RU.
